We go through twelve molecules from patent US20240408138A1 (UNIVERSITY OF CHICAGO, published 2024).

Numbering of substitutions follows the chain as printed.

What is called Kd is the constant that tells how readily two partners part at equilibrium. Low values mean a tighter complex, high ones a looser complex. Usually koff stands for the rate constant with which the complex falls apart. A high value points to fast dissociation. As a reminder, the kon is the second-order rate constant of association. Lower therefore signals slow association.

To fix the notation:
T1: INCENP N-terminal domain (1-58), His- and Avi-tagged, biotinylated (UniProt Q9NQS7 1-58, biotinylated (Avi-tag, co-expressed E. coli biotin ligase BirA))
T1 construct: range 1-58; Expressed in E. coli BL21(DE3); also called INC-N; INCENP N-terminal domain (AA 1-58); not shown: His-tag and Avi-tag
T1 sequence (looked up): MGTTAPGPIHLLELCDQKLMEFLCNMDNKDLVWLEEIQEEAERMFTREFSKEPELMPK

T2: INCENP on the surface of murine tumor cells (Mus musculus, UniProt Q9WU62)
T2 construct: kept apart from m4 because the cells are murine; also called cell surface INCENP on CT26, MC38 and 4T1 cells
T2 sequence (single chain, looked up): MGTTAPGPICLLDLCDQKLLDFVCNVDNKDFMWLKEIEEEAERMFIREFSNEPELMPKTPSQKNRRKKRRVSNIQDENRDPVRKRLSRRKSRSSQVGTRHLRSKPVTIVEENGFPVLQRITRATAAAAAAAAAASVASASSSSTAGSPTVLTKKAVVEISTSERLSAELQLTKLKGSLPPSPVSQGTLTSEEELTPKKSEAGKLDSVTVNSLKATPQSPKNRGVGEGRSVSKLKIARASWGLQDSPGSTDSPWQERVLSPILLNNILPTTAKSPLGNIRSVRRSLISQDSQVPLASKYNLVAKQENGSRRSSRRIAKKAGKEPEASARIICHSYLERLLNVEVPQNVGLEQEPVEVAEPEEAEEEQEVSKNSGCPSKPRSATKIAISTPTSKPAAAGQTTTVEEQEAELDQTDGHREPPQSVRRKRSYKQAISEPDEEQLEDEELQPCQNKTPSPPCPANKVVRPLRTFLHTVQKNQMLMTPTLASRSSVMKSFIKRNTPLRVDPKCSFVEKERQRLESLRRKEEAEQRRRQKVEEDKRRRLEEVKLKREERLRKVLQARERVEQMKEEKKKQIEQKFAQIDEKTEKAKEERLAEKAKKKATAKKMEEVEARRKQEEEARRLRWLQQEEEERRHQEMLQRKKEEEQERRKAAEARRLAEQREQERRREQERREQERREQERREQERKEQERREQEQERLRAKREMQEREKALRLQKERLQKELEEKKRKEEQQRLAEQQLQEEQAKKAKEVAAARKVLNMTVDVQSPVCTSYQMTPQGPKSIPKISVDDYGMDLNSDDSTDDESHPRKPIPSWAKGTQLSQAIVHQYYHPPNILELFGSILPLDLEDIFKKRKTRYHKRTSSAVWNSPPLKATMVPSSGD

B1: INC-N-01 (Fab, V domains shown)
VH: EVQLVESGGGLVQPGGSLRLSCAASGFNVYYYSIHWVRQAPGKGLEWVASIYPSSGSTYYADSVKGRFTISADTSKNTAYLQMNSLRAEDTAVYYCARQWLYMLWPMWGLDYWGQGTLVTVSS
VL: DIQMTQSPSSLSASVGDRVTITCRASQSVSSAVAWYQQKPGKAPKLLIYSASSLYSGVPSRFSGSRSGTDFTLTISSLQPEDFATYYCQQSYYWPITFGQGTKVEIKR
notes: also called INC-N-01 Fab
B2: INC-N-19 (Fab, V domains shown)
VH: EVQLVESGGGLVQPGGSLRLSCAASGFNVYYSYIHWVRQAPGKGLEWVASIYPYSGYTSYADSVKGRFTISADTSKNTAYLQMNSLRAEDTAVYYCARWRWPGLQFGYGMDYWGQGTLVTVSS
VL: B1 VL with Y93W, I96L
notes: also called INC-N-19 Fab
B3: INC-N-08 (Fab, V domains shown)
VH: EVQLVESGGGLVQPGGSLRLSCAASGFNFSSSSIHWVRQAPGKGLEWVASIYSYYGSTSYADSVKGRFTISADTSKNTAYLQMNSLRAEDTAVYYCARWMYKGYIFYQYFGLDYWGQGTLVTVSS
VL: B1 VL with Y92F, Y93S, W94N, P95L
notes: also called INC-N-08 Fab
B4: INC-N-12 (Fab, V domains shown)
VH: EVQLVESGGGLVQPGGSLRLSCAASGFNFSSSSIHWVRQAPGKGLEWVASIYSYSGSTYYADSVKGRFTISADTSKNTAYLQMNSLRAEDTAVYYCARYHWYYYWYWGGVSPAMDYWGQGTLVTVSS
VL: B1 VL with S91M, Y92R, W94Y
notes: also called INC-N-12 Fab
B5: INC-N-35 (Fab, V domains shown)
VH: EVQLVESGGGLVQPGGSLRLSCAASGFNFYSYSIHWVRQAPGKGLEWVASISSSSGSTSYADSVKGRFTISADTSKNTAYLQMNSLRAEDTAVYYCARHFHNPYSWDYWYGWYTALDYWGQGTLVTVSS
VL: B1 VL with Y92S, Y93S, W94S, P95L
notes: also called INC-N-35 Fab
B6: INC-N-34 (Fab, V domains shown)
VH: EVQLVESGGGLVQPGGSLRLSCAASGFNVSSSSIHWVRQAPGKGLEWVASIYPSSGYTSYADSVKGRFTISADTSKNTAYLQMNSLRAEDTAVYYCARKLAYYWGAQWSYSGYKGMDYWGQGTLVTVSS
VL: B1 VL with Y93W, W94Y
notes: also called INC-N-34 Fab
B7: INC-N-14 (Fab, V domains shown)
VH: EVQLVESGGGLVQPGGSLRLSCAASGFNVSSYSIHWVRQAPGKGLEWVASIYPSSGSTYYADSVKGRFTISADTSKNTAYLQMNSLRAEDTAVYYCARKGYGWFYYYIEWYSPYAFDYWGQGTLVTVSS
VL: B1 VL with W94Y, I96V
notes: light chain shared with INC-N-18; also called INC-N-14 Fab
B8: INC-N-06 (Fab, V domains shown)
VH: EVQLVESGGGLVQPGGSLRLSCAASGFNISYSSIHWVRQAPGKGLEWVASIYPYSGSTYYADSVKGRFTISADTSKNTAYLQMNSLRAEDTAVYYCARWSLYGKWYYWWYGLDYWGQGTLVTVSS
VL: B1 VL with S91G, Y92S, W94Y
notes: also called INC-N-06 Fab
B9: INC-N-38 (Fab, V domains shown)
VH: EVQLVESGGGLVQPGGSLRLSCAASGFNVYSSSIHWVRQAPGKGLEWVAYISSYSGYTYYADSVKGRFTISADTSKNTAYLQMNSLRAEDTAVYYCARTIYSSSYFYTWFIYGAAFDYWGQGTLVTVSS
VL: B1 VL with Y92W, Y93M, W94Y
notes: also called INC-N-38 Fab
B10: INC-N-13 (Fab, V domains shown)
VH: EVQLVESGGGLVQPGGSLRLSCAASGFNVSYYSIHWVRQAPGKGLEWVASIYPYSGSTYYADSVKGRFTISADTSKNTAYLQMNSLRAEDTAVYYCARYPYYVYWYYWWYYALDYWGQGTLVTVSS
VL: B1 VL with Y92W, Y93S, W94Y
notes: also called INC-N-13 Fab
B11: INC-N-11 (Fab, V domains shown)
VH: EVQLVESGGGLVQPGGSLRLSCAASGFNVSYYSIHWVRQAPGKGLEWVASIYPSSGSTYYADSVKGRFTISADTSKNTAYLQMNSLRAEDTAVYYCARMYPSWMLYPYYMFAGMDYWGQGTLVTVSS
VL: B1 VL with S91R, Y92W, Y93V, W94Y
notes: also called INC-N-11 Fab
B12: INC-N-04 (Fab, V domains shown)
VH: EVQLVESGGGLVQPGGSLRLSCAASGFNFYSYSIHWVRQAPGKGLEWVASIYSYSGYTYYADSVKGRFTISADTSKNTAYLQMNSLRAEDTAVYYCARYPLYFQYRKYYGIDYWGQGTLVTVSS
VL: B1 VL with S91G, Y92W, W94Y
notes: also called INC-N-04 Fab

One experiment concerns the target T1, INCENP N-terminal domain (1-58), His- …. Kind of experiment: single-point protein ELISA, 200 nM Fab on 50 nM immobilised biotinylated target, protein L-HRP, A450. As for the experimental part: To rapidly reconfirm the binding and specificity of the obtained Fabs after reformatting into the expression vectors single-point Fab ELISA was performed (FIG. 2). Briefly, 50 nM Avi-tagged targets were immobilized on the prepared NAV-coated and blocked with 0.5% BSA in PBS 96-well ELISA plates. The target coated plates were washed with appropriate buffer (TBST or PBST) and were incubated with 200 nM Fab for 20 minutes and then washed. The washed plates were incubated with protein L conjugated with HRP (1:5000 diluted in TBST) for 30 minutes. Plates were washed and the reaction was developed using the TMB chromogenic substrate (Thermofisher) and subsequently quenched with 1M HCl. Absorbance was read at 450 nm on Epoch plate reader.
In the case of B1, the binding result was “binds”.

B2: the binding result is “binds”.

B3: the binding result was “binds”.

For the molecule B4, the binding result is “binds”.

On to B5, for which the binding result is “binds”.

As for B6, the binding result is “binds”.

Consider B7, for which the binding result is given as “binds”.

The target is the same in a further experiment. Kind of experiment: SPR, target immobilised on NTA chip via His-tag, two-fold Fab dilutions from 100 nM, 1:1 Langmuir fit. The protocol:
The targets were immobilized onto a nitrilotriacetic acid (NTA) sensor chip via His-tag. 2-fold serial dilutions of the Fab were injected following ligand immobilization on the sensor chip. For each kinetic assay at least five dilutions of the Fab were tested. The data were fitted using 1:1 Langmuir Model to obtain the on-rate, off-rate and the affinity (KD) of the Fab-target interaction. (FIG. 3).
(SPR reads the build-up and loss of mass on a sensor chip optically.)
Turning to B8, the Kd came to 6.3 nM, the koff was 0.0049 s⁻¹ and the kon is 770000 M⁻¹ s⁻¹.

Take B9: the dissociation constant (Kd) was determined as 1.2 nM, the koff came to 0.0005 s⁻¹ and the kon was 420000 M⁻¹ s⁻¹.

In turn, B10 had a Kd of 20 nM, a koff of 0.0029 s⁻¹ and an on-rate constant (kon) of 140000 M⁻¹ s⁻¹.

Turning to B11, the Kd was determined as 4.2 nM, the koff was determined as 0.0031 s⁻¹ and the kon turned out to be 740000 M⁻¹ s⁻¹.

For the molecule B12, the Kd was found to be 14.8 nM, the koff was 0.011 s⁻¹ and the association rate constant (kon) was 760000 M⁻¹ s⁻¹.

Another experiment deals with T3, INCENP displayed on the surface of cancer cells (UniProt Q9NQS7 1-918, limits assumed).
T3 construct: whole, on cells; The sentence says 'various cancer cell lines'; also called cell surface INCENP
Kind of experiment: flow cytometry, 200 nM Fab on MCF7 breast cancer cells, anti-human F(ab')2-A647 secondary, MFI. The protocol:
(§1) Human or murine tumor cells were trypsinized, washed and resuspended in Flow buffer (1×PBS supplemented with 2% FBS) and added to a 96-well plate (#3799, Costar). 200 nM primary CPC Fab was mixed with 0.5M cells and incubated at 37 C for 20 min. Cells were washed with Flow buffer and stained with anti-human-FAB′2-A647 secondary antibody (#109-605-006, Jackson, 1:200) for 20 min at room temperature and washed again. Samples were analyzed by flow cytometry using CytoFLEX (Beckman Coulter) and mean fluorescence intensity (MFI) data was extracted using the FlowJo software (FIG. 4A-E, FIG. 5). Human peripheral blood mononuclear cells (PBMCs) derived from a single patient were used as a source of healthy human cells. PBMCs were counted, split and spun down 400×g 5 min. Cells were resuspended in Flow buffer (1×PBS supplemented with 2% FBS) and pre-incubated with TruStain FcX (1:20, Biolegend 422302) for 10 min at 37 C, followed by 200 nM primary Fab incubation at 37 for 20 min. Cells were washed twice and stained with secondary antibody (Alexa Fluor 647 AffiniPure Goat Anti-Human IgG, F(ab′)2 fragment specific, #109-605-006, Jackson, 1:200), for 20 min at RT, washed twice and analyzed by using CytoFLEX (Beckman Coulter). Mean fluorescence intensity (MFI) data was extracted using the FlowJo software (FIG. 4F).
(A flow cytometer gives signals particle by particle.)
For the molecule B6, the binding result was “binds”.

The next experiment addresses T3, INCENP displayed on the surface of …. Kind of experiment: flow cytometry, 200 nM Fab on MDA-231 breast cancer cells, anti-human F(ab')2-A647 secondary, MFI. The protocol:
as §1
Turning to B5, the binding result is given as “binds”.

Another experiment concerns the target T2, INCENP on the surface of murine tumor …. The experiment is described as follows: flow cytometry, 200 nM Fab on CT26 murine colorectal carcinoma cells, anti-human F(ab')2-A647 secondary, MFI [CT26]. The protocol: as §1
On to B8, for which the binding result is recorded as “binds”.
